This is an account of results in patent publication US20110142868A1 (CHIRALIX B V, published 2011).

Square brackets hold non-standard residues; d marks the D form. Orn(fluoroacetimidoyl) = N=C(CF)NCCC[C@H](N)C(=O)O

One experiment addresses recombinant human PAD2 (human, UniProt Q9Y2J8 1-665). The experiment is described as follows: cell-based or functional assay.
Another experiment deals with recombinant human PAD4 (human, UniProt Q9UM07 1-663). The experiment is described as follows: cell-based or functional assay.
Chain of recombinant human PAD4 (Q9UM07 whole entry): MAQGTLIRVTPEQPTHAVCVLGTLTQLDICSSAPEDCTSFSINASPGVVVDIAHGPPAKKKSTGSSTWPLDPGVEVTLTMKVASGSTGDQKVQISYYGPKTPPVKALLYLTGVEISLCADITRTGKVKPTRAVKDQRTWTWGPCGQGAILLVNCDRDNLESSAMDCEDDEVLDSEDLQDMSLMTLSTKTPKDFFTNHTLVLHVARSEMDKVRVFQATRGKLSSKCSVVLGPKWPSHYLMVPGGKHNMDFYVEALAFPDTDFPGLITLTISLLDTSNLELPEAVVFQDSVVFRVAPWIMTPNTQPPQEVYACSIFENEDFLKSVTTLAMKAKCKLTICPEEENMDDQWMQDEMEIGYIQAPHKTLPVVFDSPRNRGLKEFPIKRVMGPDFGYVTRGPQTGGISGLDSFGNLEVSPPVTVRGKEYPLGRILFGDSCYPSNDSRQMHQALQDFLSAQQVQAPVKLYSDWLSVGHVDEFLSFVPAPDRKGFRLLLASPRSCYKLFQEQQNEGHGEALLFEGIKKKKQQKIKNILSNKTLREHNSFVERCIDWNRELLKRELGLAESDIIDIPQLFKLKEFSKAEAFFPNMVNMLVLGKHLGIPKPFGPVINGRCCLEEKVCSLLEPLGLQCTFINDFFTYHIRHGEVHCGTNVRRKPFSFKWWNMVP

Chain of recombinant human PAD2 (Q9Y2J8 whole entry): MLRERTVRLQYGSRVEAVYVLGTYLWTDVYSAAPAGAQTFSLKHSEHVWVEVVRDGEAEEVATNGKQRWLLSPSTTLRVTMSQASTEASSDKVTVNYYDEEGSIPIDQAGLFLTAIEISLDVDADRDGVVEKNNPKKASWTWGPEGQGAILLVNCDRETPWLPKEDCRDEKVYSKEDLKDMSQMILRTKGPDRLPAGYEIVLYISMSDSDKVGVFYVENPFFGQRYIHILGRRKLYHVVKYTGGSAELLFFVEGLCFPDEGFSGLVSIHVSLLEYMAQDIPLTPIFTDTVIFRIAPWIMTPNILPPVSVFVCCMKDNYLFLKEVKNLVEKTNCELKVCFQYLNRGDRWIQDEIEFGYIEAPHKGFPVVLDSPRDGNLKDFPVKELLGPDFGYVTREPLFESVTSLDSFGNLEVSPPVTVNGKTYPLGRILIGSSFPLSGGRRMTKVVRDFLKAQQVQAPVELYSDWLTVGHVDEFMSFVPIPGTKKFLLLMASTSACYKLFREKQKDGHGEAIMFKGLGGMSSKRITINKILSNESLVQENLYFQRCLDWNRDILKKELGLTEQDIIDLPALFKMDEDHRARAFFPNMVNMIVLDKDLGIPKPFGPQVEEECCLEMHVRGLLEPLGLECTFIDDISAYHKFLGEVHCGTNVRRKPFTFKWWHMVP

B1: 0741-01FA (peptide)
peptide: Ac-FFDSKHFD[Orn(fluoroacetimidoyl)]EWIWSD-NH2
SMILES: CC[C@H](C)[C@H](NC(=O)[C@H](Cc1c[nH]c2ccccc12)NC(=O)[C@H](CCC(=O)O)NC(=O)[C@H](CCCNC(=N)CF)NC(=O)[C@H](CC(=O)O)NC(=O)[C@H](Cc1ccccc1)NC(=O)[C@H](Cc1c[nH]cn1)NC(=O)[C@H](CCCCN)NC(=O)[C@H](CO)NC(=O)[C@H](CC(=O)O)NC(=O)[C@H](Cc1ccccc1)NC(=O)[C@H](Cc1ccccc1)NC(C)=O)C(=O)N[C@@H](Cc1c[nH]c2ccccc12)C(=O)N[C@@H](CO)C(=O)N[C@@H](CC(=O)O)C(N)=O
Turning to B1, in the experiment with recombinant human PAD2, the “conversion of 0708-30 by PAD2, 10 µM inhibitor” value came out at 69%; the “conversion of 0708-30 by PAD2, 50 µM inhibitor” value was 29%; the “conversion of 0708-30 by PAD2, 100 µM inhibitor” value came to 14%. Besides, in the experiment with recombinant human PAD4, the “conversion of 0708-30 by PAD4, 10 µM inhibitor” value was found to be 63%; the “conversion of 0708-30 by PAD4, 50 µM inhibitor” value was 24%; the “conversion of 0708-30 by PAD4, 100 µM inhibitor” value came out at 15%.

B2: 0741-04FA (peptide)
peptide: Ac-FFDSHKLH[Orn(fluoroacetimidoyl)]EWMWSD-NH2
SMILES: CSCC[C@H](NC(=O)[C@H](Cc1c[nH]c2ccccc12)NC(=O)[C@H](CCC(=O)O)NC(=O)[C@H](CCCNC(=N)CF)NC(=O)[C@H](Cc1c[nH]cn1)NC(=O)[C@H](CC(C)C)NC(=O)[C@H](CCCCN)NC(=O)[C@H](Cc1c[nH]cn1)NC(=O)[C@H](CO)NC(=O)[C@H](CC(=O)O)NC(=O)[C@H](Cc1ccccc1)NC(=O)[C@H](Cc1ccccc1)NC(C)=O)C(=O)N[C@@H](Cc1c[nH]c2ccccc12)C(=O)N[C@@H](CO)C(=O)N[C@@H](CC(=O)O)C(N)=O
With B2, in the experiment with recombinant human PAD2, the “conversion of 0708-30 by PAD2, 10 µM inhibitor” value was found to be 62%; the “conversion of 0708-30 by PAD2, 50 µM inhibitor” value is 24%; the “conversion of 0708-30 by PAD2, 100 µM inhibitor” value was 14%. Moreover, in the experiment with recombinant human PAD4, the “conversion of 0708-30 by PAD4, 10 µM inhibitor” value stood at 64%; the “conversion of 0708-30 by PAD4, 50 µM inhibitor” value worked out at 28%; the “conversion of 0708-30 by PAD4, 100 µM inhibitor” value was 14%.

B3: 0741-06FA (peptide)
peptide: Ac-DSKKHD[Orn(fluoroacetimidoyl)]DFLYSD-NH2
SMILES: CC(=O)N[C@@H](CC(=O)O)C(=O)N[C@@H](CO)C(=O)N[C@@H](CCCCN)C(=O)N[C@@H](CCCCN)C(=O)N[C@@H](Cc1c[nH]cn1)C(=O)N[C@@H](CC(=O)O)C(=O)N[C@@H](CCCNC(=N)CF)C(=O)N[C@@H](CC(=O)O)C(=O)N[C@@H](Cc1ccccc1)C(=O)N[C@@H](CC(C)C)C(=O)N[C@@H](Cc1ccc(O)cc1)C(=O)N[C@@H](CO)C(=O)N[C@@H](CC(=O)O)C(N)=O
Turning to B3, in the experiment with recombinant human PAD2, the “conversion of 0708-30 by PAD2, 10 µM inhibitor” value came to 73%; the “conversion of 0708-30 by PAD2, 50 µM inhibitor” value stood at 42%; the “conversion of 0708-30 by PAD2, 100 µM inhibitor” value came to 25%. Also, in the experiment with recombinant human PAD4, the “conversion of 0708-30 by PAD4, 10 µM inhibitor” value came to 74%; the “conversion of 0708-30 by PAD4, 50 µM inhibitor” value turned out to be 43%; the “conversion of 0708-30 by PAD4, 100 µM inhibitor” value worked out at 27%.

B4: 0741-05FA (peptide)
peptide: Ac-DSHKFD[Orn(fluoroacetimidoyl)]DFIYSD-NH2
SMILES: CC[C@H](C)[C@H](NC(=O)[C@H](Cc1ccccc1)NC(=O)[C@H](CC(=O)O)NC(=O)[C@H](CCCNC(=N)CF)NC(=O)[C@H](CC(=O)O)NC(=O)[C@H](Cc1ccccc1)NC(=O)[C@H](CCCCN)NC(=O)[C@H](Cc1c[nH]cn1)NC(=O)[C@H](CO)NC(=O)[C@H](CC(=O)O)NC(C)=O)C(=O)N[C@@H](Cc1ccc(O)cc1)C(=O)N[C@@H](CO)C(=O)N[C@@H](CC(=O)O)C(N)=O
In the case of B4, in the experiment with recombinant human PAD2, the “conversion of 0708-30 by PAD2, 10 µM inhibitor” value stood at 54%; the “conversion of 0708-30 by PAD2, 50 µM inhibitor” value came out at 24%; the “conversion of 0708-30 by PAD2, 100 µM inhibitor” value was 15%. Besides, in the experiment with recombinant human PAD4, the “conversion of 0708-30 by PAD4, 10 µM inhibitor” value was determined as 55%; the “conversion of 0708-30 by PAD4, 50 µM inhibitor” value worked out at 22%; the “conversion of 0708-30 by PAD4, 100 µM inhibitor” value was determined as 14%.
